Experimental findings from patent publication US20190000969A1 (AbbVie / Abbott, published 2019) are described below.

The labels stand for the following.
T1: hUPK1B(108-229)-Fc, second extracellular domain of human UPK1B fused to human IgG2 Fc (human, UniProt O75841 108-229)
T1 construct: Expressed behind an IgK signal peptide, which is not part of the secreted protein; also called hUPK1B-Fc; Fc-fusion human UPK1B protein; not shown: human IgG2 Fc protein
T1 sequence: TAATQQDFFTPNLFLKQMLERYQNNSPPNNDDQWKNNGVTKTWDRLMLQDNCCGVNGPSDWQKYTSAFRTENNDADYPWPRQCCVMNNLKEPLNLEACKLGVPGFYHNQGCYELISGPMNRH

T2: human UPK1B (hUPK1B) protein, full length, on the cell surface (human, UniProt O75841 1-260)
T2 sequence: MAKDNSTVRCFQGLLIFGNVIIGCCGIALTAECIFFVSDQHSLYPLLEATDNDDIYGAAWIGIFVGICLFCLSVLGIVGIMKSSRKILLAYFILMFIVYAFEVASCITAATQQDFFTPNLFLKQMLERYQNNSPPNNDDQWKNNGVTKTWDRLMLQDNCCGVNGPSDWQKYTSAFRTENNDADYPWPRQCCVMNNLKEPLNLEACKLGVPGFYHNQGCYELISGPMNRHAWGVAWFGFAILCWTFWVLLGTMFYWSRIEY

B1: chimSC115.9 (Fab, V domains shown)
VH: QVQLQQPGAELVKPGASVKMSCKASGYTFTSNWMHWVKQRPGQGLEWIGVIDPSDTYISYNQKFKGKATLTVDTSSSTAYMQLSSLTSEDSAVYYCTRRDSGWYFDVWGAGTTVTVSS
VL: DIVMTQSPSSLTVTAGEKVTMSCKSSQSLLNSGNQKNYLTWYQQKPGQPPKLLIYWASTRESGVPDRFTGSGSGTDFTLTISSVQAEDLAVYYCQNDYSYPLTFGAGTKLELK
notes: also called Fab fragment (papain-digested) of chimeric SC115.9; parental chimeric antibody
B2: SC115.26 (antibody, V domains shown)
VH: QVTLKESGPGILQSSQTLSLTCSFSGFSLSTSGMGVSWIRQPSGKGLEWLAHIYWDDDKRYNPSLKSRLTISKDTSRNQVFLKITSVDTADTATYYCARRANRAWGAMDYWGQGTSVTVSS
VL: DIVMSQSPSSLAVSVGEKVTMSCKSSQSLLYSSNQKNFLAWYQQKPGQSPKLLIYWASTRESGVPDRFTGSGSGTDFTLTISSVKAEDLAIYYCQQYYYYPYTFGGGTKLEIK
B3: SC115.94 (antibody, IgG2a, V domains shown)
VH: QVQLQLSGAELVKPGASVKISCKASGYAFSSYWMNWVKQRPGKGLEWIGQIYPGDADTHYNGKFKGKATLTADKSSSTAYMQLSSLTSEDSAVYFCARLKLGRFDYWGQGTTLTVSS
VL: QLVLTQSSSASFSLGASAKLTCTLSSQHSTYTIEWYQQQPLKPPKYVMELKKDGSHNTGDGIPDRFSGSSSGADRYLSISNIQPEDEAIYICGVGYTIKEQFVYVFGGGTKVTVL
B4: SC115.32 (antibody, IgG1, V domains shown)
VH: QVQLQQPGAELVRPGSSVKLSCKASGYTFNSYWMHWVKQRPIKGLEWIGNIDPSDGETYYNQAFKDKATLTVDKSSSTAYMQLSRLTSEDSAVYYCARRGTAQATTWLGYWGQGTLVTVSA
VL: DIVMTQSPSSLTVTAGEKVTMSCKSSQSLLNSGNQKNYLTWYQQKPGQPPKLLIYWASTRESGVPDRFTGSGSGTDFTLTISSVQAEDLAVYYCQNDYSYPFTFGSGTKLEIK
B5: SC115.46 (antibody, V domains shown)
VH: QVQLQQSGPQLVRPGASVKISCKASGYSFTTSWMHWMKQRPGQGLEWIGMIDPSDSETGLNQIFRDKATLTVDKYSSTAYMQLSSPTSEDSAVYYCARRGRFSYDYGGFAYWGQGTLVTVSA
VL: DIVMTQSPSSLTVTAGEKVTMSCKSSQSLLNSGNQKNYLTWYQQKPGQTPKLLIYWASTRESGVPDRFTGSGSGTDFTLTISSVQAEDLAVYYCQNDYSNPFTFGGGTKLEIK
B6: SC115.84 (antibody, IgG2b, V domains shown)
VH: QVQLQQSGAELVKPGASVKISCETSGYTFSSYWMNWVKQRPGKGLEWIGQIDPGDGDTNYNGKFRGKATLTADKSSSTAYMQLNTLTSEDSAVYFCARSRQLRLDYWGQGTTLTVSS
VL: QIVLTQSPAIMSASPGERVTMTCSASSSVSSFYLYWYQQKSGSSPKVWIYSTSNLASGVPTRFSGSGSGTSYSLTINSMEAEDAATYYCQQWSSNPLTFGAGTKLELK
B7: SC115.90 (antibody, IgG2a, V domains shown)
VH: DVKLVESGGGFVRLGGSLKLSCAASGFTFNNYAMSWVRQTPEKRLEWVAIISRGGTKNYYPDSVKGRFTISRDNAKNTLYLQMSSLRSEDTAMYYCARLYYDDYEGYMDYWGQGTSVTVSS
VL: DIVLTQSPASLAVSLGQRATISCRASKSVSTSGYSYMHWYQQKPGQPPKLLIYLASNLESGVPARFSGSGSGTDFTLNIHPVEEEDAATYYCQHSRELPLTFGAGTRLELK
B8: SC115.36 (antibody, IgG1, V domains shown)
VH: EVQLQQSGTVVARPGASVKMSCKASGYSFTSYWMHWIKQRPGQGLDWIGSIYPGHSDATYNQRFKGKAKLTAVTSANTAYMELSSLTNEDSAVYYCSRSDGYYRGMAMDYWGQGTSVTVSS
VL: DIVLTQSPASLAVSLGQRATISCRASESVDGYGNSFMHWYRQKPGQPPKLLIYRASNLESGIPARFSGSGSRTDFALTINPVEADDVATYYCQQSYGDPRTFGGGTNLEIK
B9: SC115.51 (antibody, V domains shown)
VH: QVQLKQSGPGLVQPSQSLSITCTVSGFSLTNYGIHWVRQSPGKGLEWLGVIWRGGSTDYNAGFMSRLTITKDNSKSQVFFKMNSLQGDDTAIYYCAKNTGRGALDYWGQGTTLTVSS
VL: DIVMTQSPSSLAVTAGEKVTMRCKSSQSLLWSVNQNNYLSWYQQKQGQPPKLLISGASIRESWVPDRFTGSGSGTDFTLTISNVHAEDLAVYYCQHNHGSFLPYTFGGGTKLEIK
B10: SC115.65 (antibody, IgG2a, V domains shown)
VH: EVQLQQSGPELVKPGASVKISCKASGYSFTGYFMNWVMQSHGKSLEWIGRINPYNGDTFYNQKFKGKATLTVDKSSNTAHMELRSLASEDSGVYYCAGHNNYGVSWGQGTTLTVSS
VL: DVLMTQTPLSLPVSLGDQASISCRSSQIIVHSNGNTYLEWYLQKPGQSPKLLIYKVSNRFSGVPDRFSGSGSGTDFTLKISRVEAEDLGVYYCFQGSHLPYTFGGGTKLEIK
B11: SC115.48 (antibody, V domains shown)
VH: EVQLVETGGGLVQPKGSLKLSCAASGLSFNTYAMNWVRQAPGKGLEWVARIRSKSNNYATYYADSVKDRFTISRDDSQSMLYLQMNNLKTEDTAMYYCVTSLFDYWGQGTTLTVSS
VL: QLVVTQSSSASFSLGASAKLTCTLSSQHSTYTIEWYQQQPLKPPKYVMELKKDGSHSTGDGIPDRFSGSSSGADRYLSISNMQPEDEAIYICGVGEAIKEQFVYVFGGGTKVTVL
B12: SC115.18 (antibody, V domains shown)
VH: QVQLQQPGAELVRPGSSVKLSCKASGYTFTSYWMHWVKQRPMQGLEWIGNIDPSDSEIYYNQKFKDKATLTVDKSSGTAYMQLSSLTSEDSAVYYCARRSGSRDYYGMDDWGQGTSVTVSS
VL: DIVMTQSPSSLTVTAGEKVTMRCKSSQSLLNSGNQKNYLTWYQQKPGQPPKLLISWASTRDSGVPDRFTGSGSRTDFILTISSVQAEDLAVYYCQNDYSYPLTFGAGTKLELK
B13: SC115.9 (antibody, IgG2a, V domains shown)
VH: QVQLQQPGAELVKPGASVKMSCKASGYTFTSNWMHWVKQRPGQGLEWIGVIDPSDTYISYNQKFKGKATLTVDTSSSTAYMQLSSLTSEDSAVYYCTRRDSGWYFDVWGAGTTVTVSS
VL: DIVMTQSPSSLTVTAGEKVTMSCKSSQSLLNSGNQKNYLTWYQQKPGQPPKLLIYWASTRESGVPDRFTGSGSGTDFTLTISSVQAEDLAVYYCQNDYSYPLTFGAGTKLELK
B14: SC115.7 (antibody, V domains shown)
VH: EVQLQQSGAELVRPGASVKLSCTASGFNIKDSFIHWVKKRPEEGLEWIGWIDPEDGETKYAPKFQDKATITADTSSNTAYLQLSSLTSEDTAIYYCARRERFYGIYYALDYWGQGTSVTVSS
VL: DIVMTQSPSSLTVTAGEKVTMSCKSSQSLLNSGNQKNYLTWYQQKLGQPPKLLIYWASTRESGVPDRFTGSGSGTDFTLTISSVQAEDLAVYYCQNDYSNPFTFGSGTKLEIK
B15: SC115.13 (antibody, IgG1, V domains shown)
VH: QILLVQSGPELKKPGETVKISCKASGYTFTNYGMNWVKQAPGKGLKWMGWINTKTGVPTYPDDFKGRFAFSLETSASTAYLQISNLKDEDTATYFCTRGESFFSFAFWGQGTLVAVSA
VL: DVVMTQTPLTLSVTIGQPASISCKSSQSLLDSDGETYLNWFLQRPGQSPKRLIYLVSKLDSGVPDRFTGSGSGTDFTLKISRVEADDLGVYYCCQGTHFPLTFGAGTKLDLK
B16: SC115.52 (antibody, IgG1, V domains shown)
VH: QILLVQSGPELKKPGETVKISCKASGYTFTNLGMNWVKQAPGKGLKWMGWINTYTGDPTYVDDFKGRFAFSLETSASTAYLQISNLKNEDTATYFCTRGEKFYSFAYWGQGTLVTVSA
VL: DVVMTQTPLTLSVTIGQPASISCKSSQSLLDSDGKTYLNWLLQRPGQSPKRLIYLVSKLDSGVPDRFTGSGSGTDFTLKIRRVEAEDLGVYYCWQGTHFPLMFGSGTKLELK
B17: SC115.4 (antibody, IgG2a, V domains shown)
VH: DVKLVESGGGLVKLGGSLKLSCAASGFTFSSYPMSWVRQTPEMRLEWVATISSGGGITYYPDSVKGRFTISRDNAKNTLSLQMNSLRSEDTAMYYCSRLYYSDYEGYMDYWGQGTSVTVSS
VL: DIVLTQSPASLAVSLGQRATISCRASKSVSTSGYSYMHWYQQKPGQPPKLLIYLASNLESGVPARFSGSGSGTDFTLNIHPVEEEDASTYYCQHSRELPLTFGAGTKLELK
B18: SC115.19 (antibody, IgG2a, V domains shown)
VH: QITLKESGPGILQPSQTLSLTCSFSGFSLSTSGMGVGWIRQPSGKGLEWLANIWWNDDQYYNPPLKSRLTVSKDTSKTQVFLKIAHVDTADTATYYCARIYSGNYGAMDYWGQGTSVTVSS
VL: DIVMTQAAFSNPVTLGTSASISCRSSKSLLHSNGITYLYWYLQKPGQSPQLLIYQMSSLASGVPDRFSSSGSGTDFTLRISRVEAEDVGVYYCAQSLELPYTFGGGTKLEIK
B19: SC115.1 (antibody, IgG1, V domains shown)
VH: QVLLQQSGPQLVRPGASVKISCKASGYSFTSYWIHWVKQRPGQGLEWIGMIDPSDSETSFNQKFKDKATLTVDKSSSTAYMQLSSPTSEDSAVYYCARSYYASRFDYWGQGATLTVSS
VL: DIVMTQSPSSLAMSVGQKVTMNCKSSQSLLNSNNQKNYLAWYQQKPGQSPKLLVYFASTRESGVPDRFIGSGSGTDFTLTITSVQAEDLADYFCLQHYGTPLTFGAGTKLELK

The first test has as its target T1, hUPK1B(108-229)-Fc, second …. As to the kind of experiment: SPR, Biacore T200; human UPK1B Fc-fusion captured on anti-human chip, papain-digested Fab as analyte, 1:1 Langmuir fit. For orientation: Surface plasmon resonance follows binding to a sensor surface in real time, without labels.
Experimental: The kinetic characteristics and affinities of the anti-UPK1B antibodies for human UPK1B protein was determined by surface plasmon resonance using a Biacore T200 (GE Healthcare). An anti-human antibody capture kit was used to immobilize anti-human antibodies on a CM5 biosensor chip. Then, in independent flow cells, CHO expressed Fc-fusion human UPK1B protein was immobilized. Prior to each anti-UPK1B antibody Fab fragment injection cycle, the human Fc-fusion protein was captured at a concentration of 1 μg/mL on the surface with a contact time of 12 seconds and a flow rate of 20 μL/min. […] The CM5 anti-human chip surface was regenerated with 1 min. contact time of 10 mM Glycine, pH 1.7 at 10 μL/min. following each cycle.
The data was processed by subtracting a control irrelevant human Fc-fusion protein surface response from the specific human UPK1B Fc-fusion protein surface response and data was truncated to the association and dissociation phase. The resulting response curves were used to evaluate the kinetic characteristics of the antibodies for experiments done on the Biacore T200. Association and dissociation data was fit with a 1:1 langmuir binding model using the Biacore T200 Evaluation Software (GE Healthcare).
With B1, the Kd (as a rule, a measure of binding affinity in units of concentration) was 6.4 nM.

The target of a further test is T2, human UPK1B (hUPK1B) protein, full …. As to the kind of experiment: cell-based or functional assay.
Consider B2, for which the “IVK, HxUPK1B, 250pM, fz, % live [cont.]” value came to 105 % live. The same measure, in the same setting: in the case of B3 it was 55.7 % live; in that of B4, 28.2 % live.

Turning to B5, the “IVK, HxUPK1B, 250pM, fz, % live [cont.]” value came to 19.3 % live. Still for that read-out and setting: in the case of B6 it was 25.6 % live; in that of B7, 104 % live; in that of B8, 17.2 % live.

Another test has the same target. As to the kind of experiment: cell-based or functional assay. This is another data set of the same source.
Turning to B9, the “IVK, HxUPK1B, 250pM, fz, % live” value was found to be 100 % live.

B10: the “IVK, HxUPK1B, 250pM, fz, % live” value is 98.3 % live. B11: the “IVK, HxUPK1B, 250pM, fz, % live” value amounted to 22.2 % live. For B12, the “IVK, HxUPK1B, 250pM, fz, % live” value was determined as 22.9 % live.

For the molecule B13, the “IVK, HxUPK1B, 250pM, fz, % live” value turned out to be 17.6 % live. Regarding B14, the “IVK, HxUPK1B, 250pM, fz, % live” value was determined as 48.7 % live. Regarding B15, the “IVK, HxUPK1B, 250pM, fz, % live” value came to 99.4 % live. Same read-out and setting: in the case of B16 it was 103 % live; in that of B17, 89 % live; in that of B18, 20.4 % live.

B19: the “IVK, HxUPK1B, 250pM, fz, % live” value stood at 23.1 % live.
